The text below walks through data of US12319742.

Experiment [1] has as its target human TNFRSF25 over-expressed on CHOK1 cells (cDNA sequence NP_683866) (human) (UniProt Q93038). Briefly: flow cytometry on CHOK1-TNFRSF25+ cells; APC anti-human Fc. In general terms: In flow cytometry, cells or beads pass a laser one at a time.
For experiment [2] the target is unchanged. The experiment is described as follows: flow cytometry competition (upper panel); CHOK1-TNFRSF25+ cells with antibody 30 min at 4 C, then biotinylated human TL1A-Fc at 156 nM, PE-streptavidin.
Experiment [3] has the same target. Briefly: flow cytometry on CHOK1-TNFRSF25+ cells (lower panel), 1 h at 4 C, APC anti-human Fc.

Positions count from the first letter of the chain named.

B1: NH46 (whole antibody) (antibody, human IgG1, kappa, V domains shown)
VH: QVQLVQSGSEVKKPGASVRVSCKVSGSTVKELSMHWVRQAPGKGLEWMGGYDPEDGESIFAQKFQGRVNMTEDRSTDTAYMELSSLRSEDTAVYYCATDLNWEDAFDVWGQGTMVTVSS
VL: QSVLTQPPSVSAAPGQKVTISCSGSGSNIGNYYVAWYQQFPGTAPKLLIYDNNKRPSGIPDRFSGSKSGTSATLGITGLQTGDEADYYCGTWDTSLTAGDIYVFGTGTKVTVLR
The EC50 is the concentration at which the effect is half-maximal. Read a high EC50 as lower potency in that assay. As usually defined, the IC50 is the concentration that gives 50% inhibition. The molecule B1 yielded an EC50 in experiment [1] of 0.05 nM. In experiment [2], this molecule registered an IC50 of 49 nM.

B2: NH24-35 (antibody) (antibody, V domains shown)
VH: EVQLVESGGGSVQPGGSLRLSCAASGFTFSSYGMSWIRQAPGKGLEWVSYISSSGGHTYYADSVKGRFTISRDNAKNSLYLQMNSLRAEDTAVYYCARYSGAFDHWGQGTLVTVSS
VL: DIVMTQSPSSLSASVGDRVTITCQASQDITNYLSWYQQKPGKAPKLLINDASNLETGVPSRFSGSGSGTDFTFTISSLQPEDIATYYCQQYDTLPITFGQGTRLEIKR
As to B2, the IC50 in experiment [2] was 4 nM.

B3: NH24-162 (antibody, V domains shown)
VH: B2 VH with I37V, V48I, R67Q, Y99G, A102S, H105Y
VL: B2 VL with T30S, N49S, T93N
Regarding B3, the half-maximal inhibitory concentration (IC50) in experiment [2] was 49 nM.

B4: NH24-72 (antibody, V domains shown)
VH: B2 VH with S35N, V48I, S49T, Y99G, S100Q, A102P, D104E, H105Y
VL: B2 VL with T30S, T93N
The molecule B4 yielded an IC50 in experiment [2] of 8 nM.

B5: SL-061mut213 (antibody, human IgG1, kappa, V domains shown)
VH: QVQLQQSGPGLVKPSQTLSLTCAISGDSVSSYSAAWNWIRQSPSRGLEWLGRTYYRSKWFNDYAVSVKSRITINPDTSKNQFSLQLNSVTPEDTAVYYCARDYYGSESYYNRGYYYYGLDVWGQGTTVTVSS
VL: AIQLTQSPSSLSASVGDRVTITCRASPSISSALAWYQQKPGKAPKLLMYDESSQEGSVPSRFSGSGSGTDFTLTISSLQPEDFATYYCQQFNEYPLTFGGGTKVEIKR
By EC50 (read off the curve) is commonly meant the midpoint of the concentration-response curve. A high value points to a less potent agent. For the molecule B5, the half-maximal effective concentration (EC50 (read off the curve)) in experiment [3] worked out at 0.003 nM.
